Assay results: article PMC4294473

Target: recombinant human P301S 0N4R Tau (human)
Assay: co-sedimentation; cell seeding assay: HEK293T cells expressing P301S 1N4R Tau exposed 3 h to rising concentrations of heparin-assembled, sonicated recombinant Tau aggregates (Sarkosyl-insoluble), 3 days; Sarkosyl-insoluble pellet blotted with HT7

fold more seed needed than of TgP301S Tau aggregates for equivalent seeding: > 10 fold
fold more seed needed than of TgP301S Tau seed for equivalent Sarkosyl-insoluble Tau: 50 fold
Substance: human P301S 1N4R Tau expressed in HEK293T cells (natural protein)
